According to article PMC4914113, “Another look at the mechanism involving trimeric dUTPases in Staphylococcus aureus pathogenicity island induction involves novel players in the party” (Nucleic Acids Research, 2016):

Tests used:
Assay in all cases: BLI; BLItz; His-tagged Dut immobilised at 1 μM on Ni-NTA biosensors, Stl in solution (at least five dilutions, 4 to 0.062 μM); buffer STL (400 mM NaCl, 75 mM HEPES pH 7.5, 5 mM MgCl2, 2 mM DTT); no nucleotide; 1:1 model
[1] = target: Dut80α D81A D110C S168C (Staphylococcus aureus phage 80α)
[2] = target: Dut80α^F165A (Staphylococcus aureus phage 80α)
[3] = target: Dut80α^G164S (Staphylococcus aureus phage 80α)
[4] = target: Dut80α^IV-11 (Staphylococcus aureus phage 80α)
[5] = target: Dut80α^WT, wild-type dUTPase of phage 80α (Staphylococcus aureus phage 80α)
[6] = target: Dut80α^ΔV, Dut80α motif V deletion mutant (Staphylococcus aureus phage 80α)
[7] = target: Dut80α^ΔVI, Dut80α lacking motif VI (Staphylococcus aureus phage 80α)
[8] = target: Dut80α^ΔVI-IV-11 (Staphylococcus aureus phage 80α)
[9] = target: Dutϕ11^(ΔVI F164A) (Staphylococcus aureus phage ϕ11)
[10] = target: Dutϕ11^IV-80α (Staphylococcus aureus phage ϕ11)
[11] = target: Dutϕ11^WT, wild-type dUTPase of phage ϕ11 (Staphylococcus aureus phage ϕ11)
[12] = target: Dutϕ11^ΔV, Dutϕ11 motif V deletion mutant (Staphylococcus aureus phage ϕ11)
[13] = target: Dutϕ11^ΔV-ΔVI (Staphylococcus aureus phage ϕ11)

## Stl repressor from SaPIbov1 (natural protein)
[1]
  Kd: 58.3 nM
  koff: 0.0014 s⁻¹
  kon: 24000 M⁻¹ s⁻¹
[2]
  Kd: 581 nM
  koff: 0.0157 s⁻¹
  kon: 27000 M⁻¹ s⁻¹
[3]
  Kd: 156 nM
  koff: 0.0047 s⁻¹
  kon: 30000 M⁻¹ s⁻¹
[4]
  Kd: 3.13 nM
  koff: 0.00021 s⁻¹
  kon: 67000 M⁻¹ s⁻¹
[5]
  Kd: 40 nM
  koff: 0.001 s⁻¹
  kon: 25000 M⁻¹ s⁻¹
[6]
  Kd: 530 nM
  koff: 0.009 s⁻¹
  kon: 17000 M⁻¹ s⁻¹
[7]
  Kd: > 1000 nM
[8]
  Kd: 4.56 nM
  koff: 0.00026 s⁻¹
  kon: 57000 M⁻¹ s⁻¹
[9]
  Kd: 131 nM
  koff: 0.0021 s⁻¹
  kon: 16000 M⁻¹ s⁻¹
[10]
  Kd: 3.33 nM
  koff: 0.00025 s⁻¹
  kon: 75000 M⁻¹ s⁻¹
[11]
  Kd: 1.84 nM
  koff: 9.2e-05 s⁻¹
  kon: 50000 M⁻¹ s⁻¹
[12]
  Kd: 1.42 nM
  koff: 4e-05 s⁻¹
  kon: 28000 M⁻¹ s⁻¹
[13]
  Kd: 111 nM
  koff: 0.0019 s⁻¹
  kon: 17000 M⁻¹ s⁻¹
